From paper doi:10.1101/2022.12.25.521893 (bioRxiv, 2022) come the findings set out here.

This assay has as its target LptDE complex from Shigella flexneri with a hexahistidine tag on LptE (Shigella flexneri, UniProt Q83SQ0;Q0T6Q1). The assay is described as follows: native MS.

Ends that are not written are not given here.

LptDE complex from Shigella flexneri with a hexahistidine tag on LptE, sequence (Q83SQ0 25-784, chain 1 of 2): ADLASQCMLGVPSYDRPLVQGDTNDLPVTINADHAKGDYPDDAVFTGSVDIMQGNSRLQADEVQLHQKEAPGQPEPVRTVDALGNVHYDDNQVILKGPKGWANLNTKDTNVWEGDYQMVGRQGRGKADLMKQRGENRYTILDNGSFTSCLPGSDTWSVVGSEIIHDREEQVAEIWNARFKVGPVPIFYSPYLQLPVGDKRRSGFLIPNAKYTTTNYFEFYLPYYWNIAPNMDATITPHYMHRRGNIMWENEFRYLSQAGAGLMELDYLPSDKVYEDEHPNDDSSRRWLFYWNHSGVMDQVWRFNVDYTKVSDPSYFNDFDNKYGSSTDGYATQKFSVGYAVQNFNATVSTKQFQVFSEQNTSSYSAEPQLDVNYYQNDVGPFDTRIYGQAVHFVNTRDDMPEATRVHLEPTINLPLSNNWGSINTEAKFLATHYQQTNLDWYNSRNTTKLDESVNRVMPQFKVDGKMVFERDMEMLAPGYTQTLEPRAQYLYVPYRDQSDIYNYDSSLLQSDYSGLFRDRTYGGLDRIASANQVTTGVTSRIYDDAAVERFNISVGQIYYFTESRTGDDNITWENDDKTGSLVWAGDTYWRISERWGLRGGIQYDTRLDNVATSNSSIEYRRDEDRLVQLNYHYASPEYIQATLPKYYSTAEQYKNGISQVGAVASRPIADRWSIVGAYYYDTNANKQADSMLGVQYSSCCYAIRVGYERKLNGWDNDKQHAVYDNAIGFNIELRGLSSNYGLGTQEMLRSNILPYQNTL
LptDE complex from Shigella flexneri with a hexahistidine tag on LptE, sequence (Q0T6Q1 19-193, chain 2 of 2): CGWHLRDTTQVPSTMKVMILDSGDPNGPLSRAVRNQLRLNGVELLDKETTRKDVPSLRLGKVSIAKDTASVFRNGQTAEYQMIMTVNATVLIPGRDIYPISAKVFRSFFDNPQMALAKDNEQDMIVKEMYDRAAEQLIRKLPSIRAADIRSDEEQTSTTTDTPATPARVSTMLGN

CGLKGPLYFPPADKNAPPPTKPVETQTQSTVPDKNDRATGDGPSQVNY (natural protein, also: three acyl chains (R1, R2, R3) on N-terminal Cys) [endogenous Escherichia coli lipoprotein YifL]: the stoichiometry N (in general, the number of molecules, sites or subunits per partner or assembly) came to 1.

B1: endogenous E. coli lipoprotein YedD (natural protein)
chain: CAEVENYNNVVKTPAPDWLAGYWQTKGPQRALVSPEAIGSLIVTKEGDTLDCRQWQRVIAVPGKLTLMSDDLTNVTVKRELYEVERDGNTIEYDGMTMERVDRPTAECAAALDKAPLPTPLP
Take B1: the “stoichiometry N” value came to 1.
